According to paper PMC9170038, “Crowdsourced RNA design discovers diverse, reversible, efficient, self-contained molecular switches”:

B1: Eterna 7730854 (Same State - Tryptophan A) (ssRNA)
RNA: UACAUGAGGAUCACCCAUGUCCCAUGUGAACGAGGACCGGUACGGCCGCCACUCGACCGAGGCGGCACAUGAGGAUCACCCGCAU
B2: Eterna 7627711 (Same State - Tryptophan B) (ssRNA)
RNA: GGUUACUCUACGGCCGCCACUGAUUAAUUAUAAUCCUGUACAUAAACAUGAGGAUCACCCAUGUACAGGACCGGGUAGUGUAACC
B3: Eterna 6451279 (Small Loop Same State NG 3) (ssRNA)
RNA: ACAUGAGGAUCACCCAUGUAAAGCGAGGAUAUUUCACUGCACAUGAGGUUCGCCCAUGUUCUGCGGAAGAAGGUGCAAAUAAUU
B4: Eterna 7643338 (Exclusion - Arginine B) (ssRNA)
RNA: UUAUAUUAUCGAAGGAGCGUCACAUGAGGAUCACCCAUGUACAUGAGGAUCACCCAUGUGUGGCAGGUAGGUCGCGAUAUAUAAC
B5: Eterna 7682723 (Same State - Arginine A) (ssRNA)
RNA: AAAUUCUUUUUUUUAUUUAACUUUUCAGAAGGAGCGUGGUAGUUCACAGGUAGGUCGCUGAAUUUUGGACUAGUGAUGUUAGUUA
B6: Eterna 15907 (Sensor v3, turn-off variant 2) (ssRNA)
RNA: AGUAACCGUCACGAAAGUGAUGGUUACGCAAGUAAAUGUACAUGAGGAUCACCCAUGUCCUCAUUUGCUCGUCUUAU
B7: Eterna 12517 (Exclusion 2) (ssRNA)
RNA: AAUGGCUGAGGAUAUACACUCACGUCUAAAAGGUUCAAAUGACAUGAGGAUCACCCAUGUAGAAGGCAGCCCGA
B8: Eterna 7699730 (Exclusion - Theophylline A) (ssRNA)
RNA: AGAAACUUGUAUGUCGGCCCUGCGCGCGAUACCAGCCAAAUGGAUGGCCCUUGGCAGCGCAGCGAGUGAUGUUCGCCCGGCUGAC
B9: Eterna 1142 (Exclusion - Theophylline A) (ssRNA)
RNA: UGCAUCAGUGCCUUUGAUCUAUUCCUGGAUACCAGAUCCUACUUGAUCCCUUGGCAGCCAUACGGGAGUGAUGUUCCAUGUAUCC
B10: Eterna 6148811 (Same State NG 2) (ssRNA)
RNA: UGAAUCAAUACAGGAUAUGGUGACGCACAUGAGGAUCACCCAUGUCCGCAGCGUGCUCAGCACGCCCAGAAGGGUAUUGAUCCG
B11: Eterna 6147986 (Exclusion NG 1) (ssRNA)
RNA: GCAAUGUGAUAAGGAUAUCCAAUGGCAUCCCUAGGAGAAGGUAUCACAUGAGGAUCACCCAUGUGAAGGACGGGUUAUCGCAAA
B12: Eterna 5942428 (Same State NG 3) (ssRNA)
RNA: GUGGUCAGACAUGAGGAUCACCCAUGUGGAAUAAAUAACACACAGGAUAUCAAAUAUAAAAUAUAUGAGAAGGGUGGAUUGGUG
B13: Eterna 14907 (Exclusion 2) (ssRNA)
RNA: GUGUAGUUAGGAUAUGCUGGAAUCUAGCGAAGCUAGGUUCCACAUGAGGAUCACCCAUGUAGAAGGGACUACAC
B14: Eterna 7683541 (Same State - FMN B) (ssRNA)
RNA: UAUUAAUUGUCAGGAUAUCGUAAACGAGUGAUGUUCGUAUAUCGACGAUAGUCGAUUCUAUCUAAACGAGAAGGGACAUUAUUUA
B15: Eterna 6453430 (Inverted Small Loop Exclusion NG 3) (ssRNA)
RNA: AGGUAAGACUUAAUUGUGCUGGUGAGAAGGCAAAUGGUUGUGAUUAACAUGAGGAUCACCCAUGUUGAGGAUAUCAUCGGUAUC
B16: Eterna 7639274 (Exclusion - Theophylline B) (ssRNA)
RNA: UUAUUUAUAAUGGAUACCAGUGCUGUGGCCCGGCAUCCUGACAUGAGGAUCACCCAUGUGUACCCUUGGCAGCUGUUAUGGGUUU
B17: Eterna 10216 (Sensor for hsa-mir-208a) (ssRNA)
RNA: CUCAAAACAAGUUGCAGUGUUCGUCUUUAACAUGAGGAUCACCCAUGUAAUAACCCAGUGGAAGCGCUCGGGCCACC
B18: Eterna 11880 (Sensor v3, turn-off variant 2) (ssRNA)
RNA: AGAAAUGCCCAUGGCCGCAAGCUUUUCGCUUGUCUUACCACAUGAGGAUCACCCAUGUGACAUGGGCUCCUUAUAAU
B19: Eterna 13246 (Sensor for hsa-mir-208a) (ssRNA)
RNA: UGGAUCUAGGCUUGCCUGGGUCCAUGUUGACAUGAGGAUCACCCAUGUGUAUUUUAUAAGCUUUUUGUUUGUCAACA
B20: Eterna 5811984 (Exclusion 6) (ssRNA)
RNA: CUUAGUAUCUAGGAUAUCUAGUACAUAGUAUCUAGAGAAGGAGAUACAUGAGGAUCACCCAUGUUCUGUGUUCU
B21: Eterna 6082084 (Exclusion 3) (ssRNA)
RNA: AACACGUGAGGAUAUACAUGAGGAUCACCCAUGUUGGUACAAUCCUGUCCGACUAUCCGUAGAAGGCAUUGACU

These binders were tested against T1, MS2 coat protein, dlFG mutant (Escherichia phage MS2, UniProt P03612, del68-81insG) (assay: 4 mM Mg2+; L-tryptophan 2.4 mM; RNA-MaP array; 100 mM Tris-HCl pH 7.5, 80 mM KCl, 4 mM MgCl2, 0.1 mg/mL BSA, 1 mM DTT, 0.01 mg/mL yeast tRNA, 0.01% Tween-20; protein 1.5 nM to 3 uM; 37 C (Table S3)). Details: chain copies: 2; label: tethered by stalled RNA polymerase.

First: B1
Second: B2
The Kd of the first is 54-fold higher: 1580 nM for the first, 29.1 nM for the second.

The binders below were run against T1, MS2 coat protein, dlFG mutant (assay: 4 mM Mg2+; no ligand; RNA-MaP array; 100 mM Tris-HCl pH 7.5, 80 mM KCl, 4 mM MgCl2, 0.1 mg/mL BSA, 1 mM DTT, 0.01 mg/mL yeast tRNA, 0.01% Tween-20; protein 1.5 nM to 3 uM; 37 C (Table S3)). Details: chain copies: 2; label: tethered by stalled RNA polymerase.

Compared with B3, B4 is 2.7-fold higher in Kd: 82.6 nM for the first, 226 nM for the second.

First: B5
Second: B6
The Kd of the first is higher: greater than 3000 nM for the first, 204 nM for the second.

First: B7
Second: B8
The Kd of the first is lower: 103 nM for the first, greater than 3000 nM for the second. The first binds more tightly here.

First: B9
Second: B10
The Kd of the first is higher: greater than 3000 nM for the first, 816 nM for the second. The second binds more tightly here.

Compared with B11, B12 is 7.2-fold higher in Kd: 54.1 nM for the first, 387 nM for the second.

Compared with B13, B14 is higher in Kd: 253 nM for the first, greater than 3000 nM for the second.

B15 showed a Kd of 500 nM.

These binders were tested against T1, MS2 coat protein, dlFG mutant (assay: 4 mM Mg2+; theophylline 2 mM; RNA-MaP array; 100 mM Tris-HCl pH 7.5, 80 mM KCl, 4 mM MgCl2, 0.1 mg/mL BSA, 1 mM DTT, 0.01 mg/mL yeast tRNA, 0.01% Tween-20; protein 1.5 nM to 3 uM; 37 C (Table S3)). Details: chain copies: 2; label: tethered by stalled RNA polymerase.

B16 was tested, and the Kd was 24.2 nM.

Each binder was assayed against T1, MS2 coat protein, dlFG mutant (assay: 4 mM Mg2+; miR-208a RNA 100 nM (AU…UUGU); RNA-MaP array; 100 mM Tris-HCl pH 7.5, 80 mM KCl, 4 mM MgCl2, 0.1 mg/mL BSA, 1 mM DTT, 0.01 mg/mL yeast tRNA, 0.01% Tween-20; protein 1.5 nM to 3 uM; 37 C (Table S3)). Details: chain copies: 2; label: tethered by stalled RNA polymerase.

Going from B17 to B18, the Kd falls from 21.1 nM to 10.7 nM (2-fold). The second binds more tightly here.

Work on B19 yielded a Kd of 13.4 nM.

What follows are binders tested against T1, MS2 coat protein, dlFG mutant (assay: 4 mM Mg2+; FMN 200 uM; RNA-MaP array; 100 mM Tris-HCl pH 7.5, 80 mM KCl, 4 mM MgCl2, 0.1 mg/mL BSA, 1 mM DTT, 0.01 mg/mL yeast tRNA, 0.01% Tween-20; protein 1.5 nM to 3 uM; 37 C (Table S3)). Details: chain copies: 2; label: tethered by stalled RNA polymerase.

First: B20
Second: B21
The Kd of the first is 1.9-fold higher: 65.6 nM for the first, 34.1 nM for the second.
